Drawing on a protein production outcome set (Wang et al. 2014), this text covers protein production for 16 sequences.

This data set is described as follows: label from the status in PepcDB records.
As for “MKFGEHLSKSLIRQYSYYYISYDDLKTELEDNLSKNNGQWTQELETDFLESLEIELDKVYTFCKVKHSEVFRRVKEVQEQVQHTVRLLDSNNPPTQLDFEILEEELSDIIADVHDLAKFSRLNYTGFQKIIKKHDKKTGFILKPVFQVRLDSKPFFKENYDELVVKISQLYDIARTSGRPIKGDSSAGGKQQNFVRQTTKYWVHPDNITELKLIILKHLPVLVFNTNKEFEREDSAITSIYFDNENLDLYYGRLRKDEGAEAHRLRWYGGMSTDTIFVERKTHREDWTGEKSVKARFALKERHVNDFLKGKYTVDQVFAKMRKEGKKPMNEIENLEALASEIQYVMLKKKLRPVVRSFYNRTAFQLPGDARVRISLDTELTMVREDNFDGVDRTHKNWRRTDIGVDWPFKQLDDKDICRFPYAVLEVKLQTQLGQEPPEWVRELVGSHLVEPVPKFSKFIHGVATLLNDKVDSIPFWLPQMDVDIRKPPLPTNIEITRPGRSDNEDNDFDEDDEDDAALVAAMTNAPGNSLDIEESVGYGATSAPTSNTNHVVESANAAYYQRKIRNAENPISKKYYEIVAFFDHYFNGDQISKIPKGTTFDTQIRAPPGKTICVPVRVEPKVYFATERTYLSWLSISILLGGVSTTLLTYGSPTAMIGSIGFFITSLAVLIRTVMVYAKRVVNIRLKRAVDYEDKIGPGMVSVFLILSILFSFFCNLVAK”, the protein production entry is “failed”.
In the case of “MKFLKYFTFELRLRYRNPSQILFVFIFPLFLMFAFSSSFGKSIPHYIENNIASILLYSVLSASLTSLSVQIADHQSGKIYQLFVQRGIKKLFYIIAQIVSFMIIIFCSTLVILVVAHYAYDYEFPKLSLLILFYLKLYLYSIPFCLLAMIIGLLAKNTATASAIAMPLMFLSFFFSGMMIPLAQLSGGIRKIADNFFLTQLLSDLNHTLTSNYTVVPNWSRISLSVGLICLLALLVYRRKA” it was “failed”; in that of “MKFLRLLKHPASTAPGRAFQLYPWQERIVRAIYGPRHPDGSRIVKTVFLLVPRGNRKTSLAAALALLHTLGPERVPAGQVIFAACDREQAGIGFREAANIIRADKRLVAATRIYDAHNSAKKIVFRAEDVTLSAISSDGGAQHGRTPAFTLIDELHAWKGRDLWEALKSGTAKVADSLTVIATTAGRGADTVAAEQYAYALAVARGEIVNPAFLPILFAPEPGDDWTDEATWHKVNPGLRHGFPSLEGLRTLAKEAEGRPSDAYAFRQFNLNEWMANSRDPLFDFDTYDARRFAEDLDELEGLPCWIGVDLSISGDLSAVVAAWKHPDGQISVKPWFWVPGDDLKVRADRDGVPYERWRDEGHLIATPGAIIDQSAVADQIRELCARFDAQEVAFDPHLARPMMQSLYDEGLPVVEMRQAPLTMGVAAGDLERVVNGRLIRHDGHPVLRNHLQNVCASRSESGLIRMHKVQRTSRIDGAVAAAMAVSRAVAADSRKSAYSDPEAEGLFVF”, “failed”.
In the case of “MKFNEFLNNLSNYEPGKDIEVIAKEYGVKEVIKLASNENPFGTPPKAIECLRQNANKAHLYPDDSMIELKSTLAQKYKVQNENIIIGAGSDQVIEFAIHSKLNSKNAFLQAGVTFAMYEIYAKQCGAKCYKTQSITHNLDEFKKLYETHKDEIKLIFLCLPNNPLGECLDASEATEFIKGVNEDCLVVIDAAYNEFASFKDSKKHLEPCELIKEFDNVLYLGTFSKLYGLGGLRIGYGIANANIISAFYKLRAPFNVSNLALKAAVAAMDDDEFTEKTLENNFSQMELYKEFAKKHNIKIIDSYTNFITYFFDEKNSTDLSEKLLKKGIIIRNLKSYGLNAIRITIGTSYENEKFFTEFDKILR” it was “not failed”.
In the case of “MKFQPLGERVLVERLEEENKTSSGIIIPDNAKEKPLMGVVKAVSHKISEGCKCVKEGDVIAFGKYKGAEIVLDGTEYMVLELEDILGIVGSGSCCHTGNHDHKHAKEHEACCHDHKKH” it was “failed”; in that of “MKFRIDTFTLLLLGAIVLASFLPVTGQAAEALGTAGTIAVALLFFFHGAALSRQQIIDGATHWRLHILITALTFVFFPLAVLPVNELNTIAPEWMPKDLGLGFLYLGVLPSAVSSSIAYTAMARGNVPAAICSAAASNVFGMMLTPFLLLLLVSTSGAGEFSVAEALKDIVLQLLLPFAVGHALRPWLGGYLSRNESLMARYDQCVIWIIVYSAFSHSVVSGLWQNLPVQAIVLAILICFGLLGLFMLIARLMVRKLGFSLEDEAAVVFCGSKKSLASGLPMAKVLFSGHPGFGMIVLPIMCYNQIQVIVGAILAQKYREKIQQAKSAPAHASENGCQNR”, “failed”.
As to “MKFSRFRDSKLFFWTIEILAVVAILFVLLQMKYIFSPIGIIVSTLFMPILVAGFLFYLFNPLVLFLEKRKVPRLLSVIVIFIAFITLVVLAVMQLGPTLADQVAELAKAIPGYWQDFEKWLQGLSNNSALKDIDMKQELEKLNISLPKIMSVVVDGVASSFGAIVSFVSSFVMILVTVPFIVFYMFKDGHKFVESSGKFFPAGIRSEAKQIIKEMNKTISTYISSQAIDCMFVGLFTFIGYLIIGQPYALLFGFIAGATNIIPYLGPFIGAAPAVIVALFTSPVQALLVIVVVTIVQQIDSNLLSPYIMGKSLSIHPLTIIIILIVAGNLAGIFGMILGVPLYAVVKTIIVNVNRLIKLRRGQLAIDNNLPNPDTPKK”, the protein production result was “not failed”.
Take “MKFVKIALIIAVIALVLFAAKQTGVLEIITDIKSLQEWIAGFGAWGYIVFVAAFVFACVFLLPGSAFTIVAGIVFGPIKGGVLALFSATLGAVVAFIVARFLLRNTIMKKFGDNPIFKKIDDGVAKNGTSFLILTRLVPVFPFSLQNYAYGLTGLNLSTYALVSLITMAPGAFIFAYMAGDIATNGVSAMLLVKFAVAGLILFGMSLIPKYIAKKKGINMEELAK”: the protein production entry is “not failed”.
In the case of “MKFVSIEKDEILIGNMAKLYCKVFEKTNFNEMIERMNRHIEYTGFKGIVAINDENEVVGFTYGYRSMEGQYYNQLMREALHLEQVDEWLQDCFEFVELAVHPQYQNEGLGTKLHNELLEGIPNRTSVLTTQINNEKARSLYERLDWVNVLEPFHPSKNDVPYVIMGKALKTKVN” it was “failed”; in that of “MKFYIDDLPVLFPYPKIYPEQYNYMCDIKKTLDVGGNSILEMPSGTGKTVSLLSLTIAYQMHYPEHRKIIYCSRTMSEIEKALVELENLMDYRTKELGYQEDFRGLGLTSRKNLCLHPEVSKERKGTVVDEKCRRMTNGQAKRKLEEDPEANVELCEYHENLYNIEVEDYLPKGVFSFEKLLKYCEEKTLCPYFIVRRMISLCNIIIYSYHYLLDPKIAERVSNEVSKDSIVIFDEAHNIDNVCIESLSLDLTTDALRRATRGANALDERISEVRKVDSQKLQDEYEKLVQGLHSADILTDQEEPFVETPVLPQDLLTEAIPGNIRRAEHFVSFLKRLIEYLKTRMKVLHVISETPKSFLQHLKQLTFIERKPLRFCSERLSLLVRTLEVTEVEDFTALKDIATFATLISTYEEGFLLIIEPYEIENAAVPNPIMRFTCLDASIAIKPVFERFSSVIITSGTISPLDMYPRMLNFKTVLQKSYAMTLAKKSFLPMIITKGSDQVAISSRFEIRNDPSIVRNYGSMLVEFAKITPDGMVVFFPSYLYMESIVSMWQTMGILDEVWKHKLILVETPDAQETSLALETYRKACSNGRGAILLSVARGKVSEGIDFDHQYGRTVLMIGIPFQYTESRILKARLEFMRENYRIRENDFLSFDAMRHAAQCLGRVLRGKDDYGVMVLADRRFSRKRSQLPKWIAQGLSDADLNLSTDMAISNTKQFLRTMAQPTDPKDQEGVSVWSYEDLIKHQNSRKDQGGFIENENKEGEQDEDEDEDIEMQ”, “failed”; in that of “MKGDRLADIRTIGVVVLYRPDSSVLDAIASYRHQVHELIVVDNSEEQDHKLHSRLRDRFGATIVGEGRNLGIAAALNRAAREALAEGFDLLLTMDQDSRAEPGMVEQMLACLGSDWRERVGLIAPFHLTGARPAPGGTTPCSDVMTPMTSGCLVNLAAFREVGPFRDDFFIDFVDNEYCLRLRKKGFQVVRANRALLHHRVGDLRRYGPFVATHHSPLRRYYKTRNRCAVFAEYLRDFPVHCLFDLVRLGKEVASILIFEREKTAKLRMMWRGFLDFRRGRFGPYGGLEHHHHHH”, “failed”.
As for “MKGEESVQLQSIEKRVSSGHSPSCAEILLSTIQEMNREENLLKALDLFTQRSLVLFDCDVAAIYLLEQGKYKPFSVSFRDDKDRETLMLREFPQDFREIGTEVVETDEEWVLALSHFGKTLGAYVLKGRRSQCRDEGSAVFVKQVISIISSFIFERILKIDSLSREQALTLLLRGTEILVRADSEEQLLSEAGEMAMEILFLPGGFFLLEGAGGTWEIRSPFGRLKQEMEWDWRTWVRQYISKEECCLRSAKVHFFDIENNPFKWERVWIHPLQTHSGVVGELWLMNAGKYLNDQEQEILTAFIRVVGVALETIRQREELARLANTDRLTGILNRQGFEQRVREEIASTLRRDSRFLFLVLDLDRFKQLNDTLGHPMGDRALKEIAQNLRCAVREQDIVARTGGDEFTVVLTDIALNEESLTVIERMRKSMHLEEYNLGVSIGVAEFPTEGRTYDELYRLADQRLYRGKNSGKGNIIAD”, the entry is “failed”; as for “MKGIINMATFKQYKTKSGAFWEAFTSVGKDTNGKAKRMHKRGFKTKKEAQLWTSNVQTDFTKNGFIANDNITFAELYTKWFNEDYKEQVKESTYMITDDIFRLHILPELGSQRVKRITVAQCQSIVHKWLNQGFKTYRRFRTYAISVFDFGVRMELTTRNPMAKTSIPKQKTKPQAPHVDFYEKSELLHFLDCASKHENPQAFMFFRLLAFTGLRRGEALALQWSDINFETNELTVNKTQAVGKRWRTIIQTPKTNTSYRTIVLDPDTAQWLHKWKMTQARQCFELGFNANDPSQLVFTNQQNKLMSPSTVNYFNWSICKKYGLRHIKIHAFRHTFCTLAFEAHAGINEVSKTLGHADLKITEQIYLHVTKKQKNETASKLARYMSEL”, “failed”; as for “MKGLVELGEKAPDFTLPNQDFEPVNLYEVLKRGRPAVLIFFPAAFSPVCTKELCTFRDKMAQLEKANAEVLAISVDSPWCLKKFKDENRLAFNLLSDYNREVIKLYNVYHEDLKGLKMVAKRAVFIVKPDGTVAYKWVTDNPLNEPDYDEVVREANKIAGELVA”, “not failed”.
“MKGRLLQRLRQLSISNSLRGAFLTGALLTLIVSMVSLYSWHEQSSQVRYSLDEYFPRIHSAFLIEGNLNLAVDQLNEFLLAPNTTVRLQLRTQIIQHLDKIERLSQGLQLAERRQLAVILQDSRTLLAELDNALYNMFLVREKVSELSARIDWLHDDFTTELNSLVQDFTWQQGTLLDQIEANQGDAAQYLQRSREVQNEQQQVYTLARIENQIVDDLRDRLNELKSGNNDGMLVETHIRYLENLKKTADENIRALDDWPSTITLRQTIDELLEIGMVKNKMPDTMRDYVAAQKALLDASRAREATLGRFRTLLEAQLGSSHQQMQTFNQRLEQIVRVSGGLILVTTLLALLLAWGLNHYFIRSRLVKRFTALNQAVVQIGLGRTDSTIPVYGRDELGRIARLLRHTLGQLNMQRRQLEQEVAERKEIEADLRAMQDELIQTAKLAVVGQTMTTLAHEINQPLNALSMYLFTAGRAIEQGQSGQARNTLTKAEGLINRIDAIIRSLRQFTRRAELETPLYPVDLRQTFVAAWELLAMRHQSRQGALSLPTDTVWVSGDEVRIQQVLVNVLANALDACSHDAAIAVTWQTQGEALEVYIADNGPGWPGALLPSLLKPFTTSKAVGLGIGLSISVSLMAQMKGDLRLASTLTRNACVVLQFSVTDVDDVE”: the protein production entry was “failed”.
With “MKGSVKKDKKTGKYFYIVDIDIDPLTGKRKQKKKRGFTSKKEAENALTNLLSEVHTGTYVEPSKLSYGEYLESWFNTKRHSVGIQTAKVLKGYLNSRIIPSLGNIKLAKLTSLHMQNYVNSLRDEGLKRGTIEKIIKVIRNSLEHAIDLELITKNVAAKTKLPKADKEELTVWNEQEVQLFLKAAQDGRYSIVFHMALVTGMRQGELLGLRWKDVDLEKGHLIISQTLSHDGKTFLVGGKTKSSLRKILLPASTIAKLKKHRAVILKEKLSQGEEYQDNDLVMCTPSGTPINPANVRRSLNALIQKAAVPKIRFHDLRHTHATLLLAKGVNVKVISERLGHSNIKITLDTYSHVLPTMQEDAVNKMEEIL”, the protein production entry was “failed”.
